The values below come from US5593882.

For assay [1], the target named is P-Selectin ligand on HL60 cells and human neutrophils (human). Put plainly: flow cytometry, staining of HL60 cells. Background: In flow cytometry, cells or beads pass a laser one at a time.
The target in assay [2] is P-Selectin-IgG REKDV mutant (human) (UniProt P16109). Put plainly: capture ELISA.
Assay [3] deals with E-Selectin-IgG chimera (wild type) (human) (UniProt P16581). Put plainly: capture ELISA, mAb coated. A general note: In an ELISA, binding on a coated surface is turned into a signal by an enzyme label.
Assay [4] has as its target P-Selectin-IgG chimera (human) (UniProt P16109). The assay is described as follows: capture ELISA, mAb coated.
For the next assay, the target named is PE-1 chimera (human) (UniProt P16581). Put plainly: capture ELISA, mAb coated.

In assay [1], “P-Selectin-IgG chimera (from UniProt P16109) (Fc fusion)” registered a % cells positive of 97% and an MFI of 416 MFI.
As for mAb AC 1.2 (antibody), the percent of control P-Selectin-IgG binding in assay [2] is 70%. For the same substance, the O.D. 450 was found to be 0 O.D. 450 in assay [3], 2.8 O.D. 450 in assay [4] and 0.1 O.D. 450 with PE-1 chimera (human).
Regarding mAb AK-6 (CLB-thromb/6) (antibody), the percent of control P-Selectin-IgG binding in assay [2] came to 70%. In addition, the O.D. 450 in assay [3] is 0 O.D. 450; in assay [4], 1.3 O.D. 450; in the assay with PE-1 chimera (human), 1.7 O.D. 450.
